Reference: US20170157165, “APTAMER FOR FGF2 AND USE THEREOF” (RIBOMIC INC., published 2017)

What was measured:
FGF2 [1] = biological target: T1, FGF2 (Homo sapiens, UniProt P09038 P09038:135-288); assay: inhibition; SPR inhibition of FGF2-FGFR1alpha(IIIc); each 0.1 uM; conditions: tags: Peprotech
Procedure: BIAcore2000 manufactured by BIAcore was used for the measurement. As directed in BIAcore Company's protocol, Protein A (21181, manufactured by PIERCE) was immobilized on a CM5 sensor chip. About 1,000 RU of human FGFR1α (IIIc), R2α (IIIc), R3 (IIIc), R4 (manufactured by R&D Systems) fused with the Fc portion of IgG (manufactured by R&D systems) was each immobilized thereon. As analyte, a mixture of FGF2 (0.1 μM), heparin (0.1 μM) (manufactured by Pfizer) and aptamer (0.15 μM) was flown. Before an inhibitory test, a mixture of FGF2 and heparin was confirmed to bind to 4 kinds of receptors. […] A sensorgram showing that the aptamer shown by aptamer ID 1 inhibits binding of FGF2 and FGFR1α(IIIc), 2α(IIIc), 3(IIIc), 4 is shown in FIG. 2.
In addition, the inhibitory rate against each of the 4 kinds of receptors was determined. The inhibitory rate was determined with the maximum binding amount of the FGF2 and heparin mixture as 0, and the binding amount with an injection buffer alone as 100. The binding amount here means the RU value of the peak top of sensorgram. The inhibitory rate was calculated. […] The inhibitory rate of other aptamers was not more than 50%.
To enhance FGF2-binding activity, stability, drug deliverability and the like, the nucleic acids shown by aptamer IDs 3(1)-3(40), aptamer IDs 4 and 4(1)-4(4), aptamer ID 5 and aptamer ID 6 were chemically synthesized based on the aptamer shown in SEQ ID NO: 3. Here, the aptamer shown by aptamer ID 4 is the aptamer shown by aptamer ID 3(19) wherein one G(M) at the 5′-terminal and one C(M) at the 3′-terminal have been deleted. The aptamer shown by aptamer ID 5 is the aptamer shown by aptamer ID 3(19) wherein one G(M) has been added at the 5′-terminal and one C(M) has been added at the 3′-terminal. The aptamer shown by aptamer ID 6 is the aptamer shown by aptamer ID 3(19) wherein A(M) alone has been added at the 5′-terminal. These nucleic acids were produced by chemical synthesis.

FGF2 [2] = biological target: T1, FGF2; assay: cell_activity; HUVEC proliferation, FGF2 0.58 nM; conditions: tags: Peprotech
Procedure: Human umbilical vein endothelial cells (HUVEC) were seeded in a 96 well flat bottom plate at 5×10³ cells per well, and cultured overnight using a medium EGM-2 Bullet Kit for endothelial cells (CC-3162 manufactured by Lonza) containing 2% fetal bovine serum and growth factors. Thereafter, the medium was discarded, the cells were washed twice with PBS buffer, and a mixture of the aptamer shown by aptamer ID 3(21) (5, 2.5, 1, 0.5 nM) and FGF2 (final concentration 0.5 nM), dissolved in a medium exclusively for endothelial cells containing 2% fetal bovine serum, was added. After 72 hr, viable cell number was examined using Cell Counting Kit-8. For the measurement of absorbance, a microplate reader (450 nm) was used. One sample was measured at n=3. As a positive control, anti-FGF2 antibody Anti-FGF, basic (Ab-3) Mouse mAb (3H3) (manufactured by Calbiochem) were used. With the OD value per well obtained by the addition of FGF2 alone and culture of the cells for 3 days as inhibitory activity 0%, and that of the cell obtained by FGF2 free culture for 3 days as inhibitory activity 100%, the inhibitory activity of the aptamer was calculated from the OD value per well obtained by culturing with the addition of a mixture of FGF2 and the aptamer. As a result, it was shown that the aptamer shown by aptamer ID 3(21) has a high inhibitory activity against FGF2.
By a method similar to the above except that the 96 well flat bottom plate was changed to a collagen-coated one, the activity of various aptamers was evaluated. The concentration of FGF2 added was 0.58 nM. As a negative control RNA, Macugen (registered trade mark) sequence without addition of PEG, and with C6 modification of the 5′-terminal and idT modification of the 3′-terminal was used.

T1 sequence (P09038 135-288, one chain of several): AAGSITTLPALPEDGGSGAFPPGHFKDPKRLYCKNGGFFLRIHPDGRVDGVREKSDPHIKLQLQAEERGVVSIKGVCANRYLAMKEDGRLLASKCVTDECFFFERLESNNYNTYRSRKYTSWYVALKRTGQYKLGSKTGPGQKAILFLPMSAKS

B1: aptamer ID 3(14) (ssRNA)
RNA: GGGAUACUAGGGCAUUAAUGUUACCAGUGUAGUCCC
modifications: 2'-OMe at G1,G2,G3,A4,A9,G10,G11,A14,A17,A18,G20,U22,A23,A26; other C and U 2'-F; other purines 2'-OH
activity (FGF2 [1]): 87% | IC50 (FGF2 [2]): 12 nM

B2: aptamer ID 3(28) (ssRNA)
RNA: GGGAUACUAGGGCAUUAAUGUUACCAGUGUAGUCCC
modifications: 2'-F at U8,U16,U21,U28,U30; 2'-OH at G12,G27,G29; all others 2'-OMe; PS between G11 and G12
activity (FGF2 [1]): 91% | IC50 (FGF2 [2]): 4 nM

GGGAUACUAGGGCAUUAAUGUUACCAGUGUAGUCCC (ssRNA, 2'-F at U8,G12,U16,U21,G27,U28,U30; 2'-OH at G29; all others 2'-OMe; 3' idT) [aptamer ID 3(35)]
activity (FGF2 [1]): 84%

B3: aptamer ID 3(17) (ssRNA)
RNA: GGGAUACUAGGGCAUUAAUGUUACCAGUGUAGUCCC
modifications: 2'-OMe at G1,G2,G3,A4,U5,A9,G10,G11,A14,A17,A18,G20,A23,A26; other C and U 2'-F; other purines 2'-OH
activity (FGF2 [1]): 88%

B4: aptamer ID 3(40) (ssRNA)
RNA: GGGAUACUAGGGCAUUAAUGUUACCAGUGUAGUCCC
modifications: 2'-F at U8,U16,U21,U28,U30; 2'-OH at G12,G27,G29; all others 2'-OMe; 5' PEG 40K (GL2-400TS)-ssH; 3' idT
activity (FGF2 [1]): 97%

GGGAUACUAGGGCAUUAAUGUUACCAGUGUAGUCCC (ssRNA, 2'-F at U8,U16,U21,U28,U30; 2'-OH at G12,G27,G29; all others 2'-OMe) [aptamer ID 3(18)]
activity (FGF2 [1]): 89% | IC50 (FGF2 [2]): 2.6 nM

GGGAUACUAGGGCAUUAAUGUUACCAGUGUAGUCCC (ssRNA, all C and U 2'-F; 2'-OMe at G32; other purines 2'-OH) [aptamer ID 3(10)]
activity (FGF2 [1]): 89%

GGGAUACUAGGGCAUUAAUGUUACCAGUGUAGUCCC (ssRNA, 2'-F at U8,U16,U21,G27,U28,U30; 2'-OH at G12,G29; all others 2'-OMe) [aptamer ID 3(26)]
activity (FGF2 [1]): 99% | IC50 (FGF2 [2]): 3 nM

GGGAUACUAGGGCAUUAAUGUUACCAGUGUAGUCCC (ssRNA, all C and U 2'-F; 2'-OMe at A6; other purines 2'-OH) [aptamer ID 3(9)]
activity (FGF2 [1]): 89%

GGGAUACUAGGGCAUUAAUGUUACCAGUGUAGUCCC (ssRNA, all C and U 2'-F; 2'-OMe at G10; other purines 2'-OH) [aptamer ID 3(4)]
activity (FGF2 [1]): 89%

B5: aptamer ID 3(12) (ssRNA)
RNA: GGGAUACUAGGGCAUUAAUGUUACCAGUGUAGUCCC
modifications: 2'-OMe at G1,G2,G3,A4,A9,G10,G11,A14,A17,A18,G20,A23,A26,U33,C34,C35,C36; other C and U 2'-F; other purines 2'-OH; 3' idT
activity (FGF2 [1]): 89% | IC50 (FGF2 [2]): 21 nM

GGGAUACUAGGGCAUUAAUGUUACCAGUGUAGUCCC (ssRNA, all C and U 2'-F; 2'-OMe at A9; other purines 2'-OH) [aptamer ID 3(5)]
activity (FGF2 [1]): 87%

GGGAUACUAGGGCAUUAAUGUUACCAGUGUAGUCCC (ssRNA, all C and U 2'-F; 2'-OMe at A31; other purines 2'-OH) [aptamer ID 3(11)]
activity (FGF2 [1]): 88%

GGGAUACUAGGGCAUUAAUGUUACCAGUGUAGUCCC (ssRNA, 2'-F at U8,U16,U21,U28,U30; G12 DNA (2'-H); 2'-OH at G27,G29; all others 2'-OMe) [aptamer ID 3(23)]
activity (FGF2 [1]): 91% | IC50 (FGF2 [2]): 5.3 nM

GGGAUACUAGGGCAUUAAUGUUACCAGUGUAGUCCC (ssRNA, 2'-F at U8,U16,U21,U28,G29,U30; 2'-OH at G12,G27; all others 2'-OMe) [aptamer ID 3(27)]
activity (FGF2 [1]): 99% | IC50 (FGF2 [2]): 3.7 nM

B6: aptamer ID 3(32) (ssRNA)
RNA: GGGAUACUAGGGCAUUAAUGUUACCAGUGUAGUCCC
modifications: 2'-F at U8,U16,U21,U28,U30; 2'-OH at G12,G27,G29; all others 2'-OMe; PS between U28 and G29
activity (FGF2 [1]): 91% | IC50 (FGF2 [2]): 4 nM

GGAUACUAGGGCAUUAAUGUUACCAGUGUAGUCC (ssRNA, 2'-F at U7,U15,U20,U27,U29; 2'-OH at G11,G26,G28; all others 2'-OMe; 3' idT) [aptamer ID 4]
activity (FGF2 [1]): 95% | IC50 (FGF2 [2]): 5 nM

GGAUACUAGGGCAUUAAUGUUACCAGUGUAGUCC (ssRNA, 2'-F at U7,G11,U15,U20,G26,U27,U29; 2'-OH at G28; all others 2'-OMe; 3' idT) [aptamer ID 4(2)]
activity (FGF2 [1]): 94% | IC50 (FGF2 [2]): 5.1 nM

B7: aptamer ID 4(4) (ssRNA)
RNA: GGAUACUAGGGCAUUAAUGUUACCAGUGUAGUCC
modifications: 2'-F at U7,G11,U15,U20,G26,U27,U29; 2'-OH at G28; all others 2'-OMe; PS between G28 and U29; 3' idT
activity (FGF2 [1]): 96% | IC50 (FGF2 [2]): 4.5 nM

GGAUACUAGGGCAUUAAUGUUACCAGUGUAGUCC (ssRNA, 2'-F at U7,G11,U15,U20,U27,U29; 2'-OH at G26,G28; all others 2'-OMe; 3' idT) [aptamer ID 4(1)]
activity (FGF2 [1]): 93% | IC50 (FGF2 [2]): 3.8 nM

B8: aptamer ID 4(3) (ssRNA)
RNA: GGAUACUAGGGCAUUAAUGUUACCAGUGUAGUCC
modifications: 2'-F at U7,G11,U15,U20,U27,U29; 2'-OH at G26,G28; all others 2'-OMe; PS between U27 and G28; 3' idT
activity (FGF2 [1]): 96% | IC50 (FGF2 [2]): 4.6 nM
